Like-named read-outs stand apart in the source and are kept apart here.
Columns and labels:
[1] = target: RGY-mutated 34-1-2S (RGY-hIgG1-34-1-2S) (mouse | human); assay: negative stain electron microscopy; antibody samples diluted to 0.01 mg/mL in 25 mM HEPES and 100 mM NaCl, on carbon-coated grids, stained with 0.75% uranyl formate; monomer to hexamer in solution
[2] = target: T1, K^d MHC class I monomer presenting … (Mus musculus, H-2d haplotype (H-2Kd), UniProt P01902;P01887)
[3] = target: T2, K^b MHC class I monomer presenting SIINFEKL (mouse | ); assay: SPR
T2 chain 1: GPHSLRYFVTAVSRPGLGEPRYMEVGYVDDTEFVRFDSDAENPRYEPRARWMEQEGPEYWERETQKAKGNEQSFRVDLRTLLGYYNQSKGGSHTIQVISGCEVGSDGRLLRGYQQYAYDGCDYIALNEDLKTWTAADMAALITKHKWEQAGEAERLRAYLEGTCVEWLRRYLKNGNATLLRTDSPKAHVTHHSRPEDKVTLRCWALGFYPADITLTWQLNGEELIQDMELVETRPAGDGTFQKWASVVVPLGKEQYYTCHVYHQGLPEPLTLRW
T2 chain 2: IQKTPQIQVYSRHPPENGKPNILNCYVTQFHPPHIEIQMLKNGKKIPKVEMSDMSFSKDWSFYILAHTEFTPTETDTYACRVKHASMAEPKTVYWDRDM
T2 chain 3: SIINFEKL

[4] = target: T3, K^d MHC class I monomer presenting VYLKTNVFL (mouse | ); assay: SPR
T3 chain 1: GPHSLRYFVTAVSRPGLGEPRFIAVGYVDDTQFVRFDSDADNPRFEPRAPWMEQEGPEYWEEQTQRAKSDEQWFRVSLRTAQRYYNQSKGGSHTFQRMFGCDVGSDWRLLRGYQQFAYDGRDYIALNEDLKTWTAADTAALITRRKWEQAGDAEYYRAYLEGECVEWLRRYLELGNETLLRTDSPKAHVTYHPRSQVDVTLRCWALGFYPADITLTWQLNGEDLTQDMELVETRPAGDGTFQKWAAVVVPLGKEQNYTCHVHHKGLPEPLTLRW
T3 chain 2: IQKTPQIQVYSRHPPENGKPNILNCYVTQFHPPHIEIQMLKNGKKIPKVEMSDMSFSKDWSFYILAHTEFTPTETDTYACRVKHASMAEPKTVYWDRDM
T3 chain 3: VYLKTNVFL

[5] = target: T4, D^d MHC class I monomer presenting IGPGRAFYA (mouse | ); assay: SPR
T4 chain 1: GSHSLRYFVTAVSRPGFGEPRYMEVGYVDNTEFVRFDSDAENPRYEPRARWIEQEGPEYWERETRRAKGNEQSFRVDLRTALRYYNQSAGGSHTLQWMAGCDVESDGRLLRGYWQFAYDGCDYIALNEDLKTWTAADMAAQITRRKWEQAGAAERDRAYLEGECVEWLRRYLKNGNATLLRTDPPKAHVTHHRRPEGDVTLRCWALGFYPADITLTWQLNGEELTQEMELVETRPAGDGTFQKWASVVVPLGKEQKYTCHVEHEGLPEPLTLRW
T4 chain 2: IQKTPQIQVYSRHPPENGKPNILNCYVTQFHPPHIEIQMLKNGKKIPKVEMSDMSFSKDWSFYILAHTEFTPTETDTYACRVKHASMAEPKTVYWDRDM
T4 chain 3: IGPGRAFYA

[6] = target: T5, D^b MHC class I monomer presenting … (Mus musculus, H-2b haplotype (H-2Db), UniProt P01899;P01887); assay: SPR; mAbs bound via amine coupling to SensEye G Easy2Spot sensors; serial dilutions (0.5–200 nM) of MHC class I monomers injected; in triplicate; IBIS MX96 SPR imager; conditions: both partners purified
T5 construct: mouse MHC class I heavy chain H-2D^b of the bought monomer; beta-2-microglobulin of the bought monomer; presented peptide; Soluble monomer from a supplier; copies: + +

[7] = target: T1, K^d MHC class I monomer presenting …; assay: as above; conditions: both partners purified
[8] = target: T6, K^b MHC class I monomer presenting SIINFEKL (Mus musculus, H-2b haplotype (H-2Kb), UniProt P01901;P01887); assay: as above; conditions: both partners purified
T6 construct: mouse MHC class I heavy chain H-2K^b of the bought monomer; beta-2-microglobulin of the bought monomer; presented peptide; Soluble monomer from a supplier; also called K^b MHC class I antigen from H2^b mice; copies: + +

B1: RGY-mutated 34-1-2S (RGY-hIgG1-34-1-2S) (antibody, V domains shown)
VH: EVQLQQSGAEFVRPGASVKLSCTASGFNLKDDYMFWVKQRPEQGLEWIGWIAPDNGDTEYASKFQGKATITADTSSNTAYVQLSSLTSEDTAVYYCTTWGYYSYVNYWGQGTTLTVSS
VL: DIQMTQSPSSLSASLGERVSLTCRASQDIGSNLNWLQQEPDGTIKRLIYATYSLDSGVPKRFSGSRSGSDYSLTISSLESEDFVDYYCLQYASSPYTFGGGTKLEIK
**Q.** How did the stoichiometry N [1] turn out when B1 was run?
**A.** 6

B2: Kd1 (antibody, V domains shown)
VH: EVLLVESGGDLVKPGGSLKLSCAASGFTFRTYAMSWVRQTPEKRLEWVATIGDDGSYTFYPDNVKGRFTISRDNAKNNLYLQMRHLKSEDTAIYFCARDGLFAYWGQGTLVTVSA
VL: DIQMTQSPSSLSASLGGKVTITCKASQDIKKNIAWYQYKPGKGPRLLIHYTSTLQPGISSRFSGSGSGRDYSFSISNLEPEDIATYYCLQYDSLLYTFGGGTKLEIK
**Q.** Does B2 bind [2]?
**A.** binds

B3: MHC class I alloantibody 34-1-2S (mouse IgG2a) (antibody, V domains shown)
VH: EVQLQQSGAEFVRPGASVKLSCTASGFNLKDDYMFWVKQRPEQGLEWIGWIAPDNGDTEYASKFQGKATITADTSSNTAYVQLSSLTSEDTAVYYCTTWGYYSYVNYWGQGTTLTVSS
VL: DIQMTQSPSSLSASLGERVSLTCRASQDIGSNLNWLQQEPDGTIKRLIYATYSLDSGVPKRFSGSRSGSDYSLTISSLESEDFVDYYCLQYASSPYTFGGGTKLEIK
notes: heavy-chain variable region of 34-1-2S; mouse IgG2a heavy-chain constant region; light chain variable region of 34-1-2S; light-chain constant region of the mouse antibody; Mouse IgG2a; also called anti-MHC class I clone 34-1-2S; control 34-1-2S; source: bought: Bio X Cell, catalog no; BE0180
**Q.** How did the Kd [3] turn out when B3 was run?
**A.** 2490 nM

**Q.** What about the Kd [4] of the same binder?
**A.** 9.1 nM

**Q.** What about the Kd [5] of the same binder?
**A.** 30 nM

**Q.** Does B3 bind [6]?
**A.** no binding (tested: 0.5–200 nM)

**Q.** Does B3 bind [7]?
**A.** binds

**Q.** Does B3 bind [8]?
**A.** binds
